We go through 18 sequences from the DeepSol protein solubility set.

The data set in a line: soluble on expression in E. coli; label from the status in PepcDB or PDB records.
With “MTKPLVIFGSGDIAQLAHYYFTRDSEYEVVAFTVDRDYASVSEFCGLPLVAFDEVAQRFPPESHAMFVALAYAKLNGVRKEKYLAAKALGYELASYVSSHATVLNDGRIGENVFLLEDNTIQPFVSIGNNVTLWSGNHIGHHSTIHDHCFLASHIVVSGGVVIEEQSFIGVNATLRDHITIGSRCVVGAGALEHHHHHH”, the “soluble on expression in E. coli” value was “not soluble”.

For the sequence “MAHHHHHHMNTDERYKLLRSVGEECIQESELRNLIEKKPLIRCYDGFEPSGRMHIAQGIFKAVNVNKCTAAGCEFVFWVADWFALMNDKVGGELEKIRIVGRYLIEVWKAAGMDMDKVLFLWSSEEITSHADTYWRMVLDIGRQNTIARIKKCCTIMGKTEGTLTAAQVLYPLMQCCDIFFLKADICQLGLDQRKVNMLAREYCDLIGRKLKPVILSHHMLAGLKQGQAKMSKSDPDSAIFMEDTEEDVARKIRQAYCPRVKQSASAITDDGAPVATDDRNPVLDYFQCVVYARPGAAATIDGTTYATYEDLEQAFVSDEVSEDALKSCLIDEVNALLEPVRQHFASNEEAHELLEAVKSYRKDGATLPLAETALPAAPAKPHACMWMPALLKVPLDVAEGMIKVTKDFIAAHPEGTVTLVLPDWSAVASDEITGVEKDISAALQVNCALLKAYGLPSSVKIVTENEVILGNCDDFWVSVIGIARKNLLSHVEELYGGEVRNAGQVIAALMRVATALMLSVSHVISTSLDGHINAFAREYTKERIDCVQTLEGRIPALHRPGAAPAVLGADDVLYLDDNDMDIRRKIKKAYSAPNEEANPVISVAQHLLAQHGALSIERGEANGGNVSYNTPEALVADCGSGALHPADLKAAVLQLLLDRSAQARALLNGELKKNMTVLRNAEKKMAKKR”, the “soluble on expression in E. coli” value is “soluble”.

“MGSDKIHHHHHHMPTLEPKIPGISLNYVVPTPEPELLTGVPVFFGLVTEEVKEAKKLTLATHFQQYFGQAKGYLADAIKGFFENGGRLCYVIALSNNTLEALQQGLETSEVLENIDLICVPDIMLGSDGEVIQMQQAILKHCEQMGDRFAILDALNDIGKLNEQRKRISSQNGALYAPWLKVEFRVDPIPACGHIAGIYASCDRTVGVHGAPANIPLAGVLDLSFSLTPTDQEQLNPKNEAGVNCIRSFQGRGMRVWGVRTLSPIPEWQYVNVRRLFLTFGRWVNRNLADTVFEPNAFPLWVRLQRELSIYCESLWRQGAIQGALPQEAFYVKCDAETNPPENREMGQVIAEIGLAPTIPGEFIQLLVVQSSSGITLT”: the “soluble on expression in E. coli” value is reported as “not soluble”.

For “LNDFAVRVAKSFSKVSEEKKSGSDIQGVFGIGSLENALYTASFAAGGGDYNNFLFNIKKGRADFSNFFNHNSKTFQSLRDIFNSFKPLIDQKGLISNKHFDTPVNNYAKFHQLAFYVSSTARFPYSFAKDNVKRLIIGKRELEVNPKSMFAIKKENGNNGNSNLLGKVALDNNKSIELYENNIPNGKTDAILIKN”, the “soluble on expression in E. coli” value is given as “soluble”.

As for “MLDPARSFDIIGDVHGCALTLERLLDALGYKRVAGVWRHPRRQALFLGDIVDRGPRIREALHIVHDMVEAGQAFCIMGNHEYNALGWVTPALPGSGKAYVREHTPRHARLIDETLTQFAQHPGDWHDFVNWFYQLPLFIDAGRFRLVHACWDPRLIEPLRQQYPDGRIDEHFIQASAVSGSFADTVCNRLLRGTDMRLPDGLTLTGGDGLTRAFFRTKFWEEDPKTYGDIVFQPDALPEEVASTPLSHSQKNALLRYDEDQPMLFVGHYWRSGRPAPIRANLACLDYSAVLYGKLVAYRLDDETRIDPHKFVWVDVDRPQANQLEHHHHHH”, the “soluble on expression in E. coli” value is “soluble”.

Turning to “MGHHHHHHSHNQYPAELMRRFELYFQGPSSNKPRVIREVRADSVGKLVTVRGIVTRVSEVKPKMVVATYTCDQCGAETYQPIQSPTFMPLIMCPSQECQTNRSGGRLYLQTRGSRFIKFQEMKMQEHSDQVPVGNIPRSITVLVEGENTRIAQPGDHVSVTGIFLPILRTGFRQVVQGLLSETYLEAHRIVKMNKSEDDESGAGELTREELRQIAEEDFYEKLAASIAP”, the “soluble on expression in E. coli” value is on record as “not soluble”.

Consider “MQTASVPAGIAERRTRAWAPYIDAKLGFRNHWYPVRLSAEVAEASPVPVQLLGEKVLLNRVDGVVHAIADRCLHRGVTLSDKVECYSKATISCWYHGWTYRWDNGKLVDILTNPTSVQIGRHALKTYPVREEKGLVFLFVGDQEPHDLAEDVPPGFLDADLAVHGQHRVVDANWRMGVENGFDAGHVFIHKSSILLDGNDIALPLGFAPGDPEQLTRSVTGEGAPKGVFDLLGEHSVPIFEATIEGQPAIQGHMGSKMVAISISVWLPGVLKVDPFPDPTLTQFEWYVPIDEGHHLYLQMLGRRVGSEEEARSFEAEFREKWVELALNGFNDDDILARRSMEPFYADDRGWREEVLFESDRAIIEWRRLASQYNRGIQTRDVRHHHHHH”, for which the “soluble on expression in E. coli” value was “soluble”.

As to “MKYKIFASTTPQTEPVLQKLKQVLKGCEAVEKGFDYLFVLGGDGFFVSTVANYNCHNCRVVGINTGHLGFYTSFNEKDLDDNFLQKLQQCHFQRISLLEVSVNGQQHLVLNELAVYTNTAYPINIFIDGEAWEFYRGSGLLIGPRTGSTALAKSAKGAVIFPGIDVLQIIEMNPLLHPNQVTIQSPIILPKETQVEFVVKKAFNPQQFPTFYCDGRKLELPNADTTLALKLVQSTPMFNISLKTQDFINKLKSTFIKQS”, the “soluble on expression in E. coli” value is given as “soluble”.

Turning to “MKQWIAALLLMLIPGVQAAKPQKVTLMVDDVPVAQVLQALAEQEKLNLVVSPDVSGTVSLHLTDVPWKQALQTVVKSAGLITRQEGNILSVHSIAWQNDNIARQEAEQARAQANLPLENRSITLQYADAGELAKAGEKLLSAKGSMTVDKRTNRLLLRDNKTALSALEQWVAQMDLPVGQVELSAHIVTINEKSLRELGVKWTLADAQHAGGVGQVTTLGSDLSVATATTHVGFNIGRINGRLLDLELSALEQKQQLDIIASPRLLASHLQPASIKQESEIPYQVSSGESGATSVEFKEAVLGMEVTPTVLQKGRIRLKLHISQNVPGQVLQQADGEVLAIDKQEIETQVEVKSGETLALGGIFTRKNKSGQDSVPLLGDIPWFGQLFRHDGKEDERRELVVFITPRLVSSELEHHHHHH”, the “soluble on expression in E. coli” value was “not soluble”.

On to “MATGTATEKPKIVWNEGRHRFETDDHEAFIEYKMKNDGKVMDLVRTFVPPSKAGLGLASHLCVAAFEHASEHSFSIIPTCSYVSVYISSFLKKLR”, for which the “soluble on expression in E. coli” value is given as “not soluble”.

As for “MARDGAVYACQSCGAVQTKWSGQCSACQSWNTLVEEVSAKPPGALSATKATRVRGLQFTGLESETAPPPRILTGVDEFDRVCGGGVVPGSALLIGGDPGVGKSTLLLQVCASAAARGVSCAYISGEEAVEQIRGRADRMGLAKANVSLAAETALRDILDGLKRDNFDLVVIDSIQTMWSDAHEAGPGTVTQVRACATELVRLAKKKGVAILLVGHVTKDGQIAGPRVVEHLVDAVLSFEGERGYPFRILRGAKNRFGATDEIGVFEMGDVGLREVKNPSALFLNEGGERAAGAAVFAGIEGSRPVLVEFQALVAPSAYGTPRRAVVGWDSGRLAMVLAVLEARCGLGFGDKDVYLNVAGGLRITEPAADLAAAAALASSALDVALPQDCVVFGELSLSGEVRPVSRMETRLKEAAKLGFGRALGPLAGLPEGGGALPVAGVARLTDAVRRIGDEIWTSLT”, the “soluble on expression in E. coli” value is “soluble”.

On to “MGSDKIHHHHHHMTKSLITGANGFVGSAVTRCLLEAGHEVRCLVRPGSDRRNLDKLPVEISEGDLRSASSLKRAVAGCDNLFHVAADYRLWVPNPDTMYEINVKGTRALVLAAAEAGMKRMVYTSSVATLGTAENGVPADEDTPSSLGSMCGHYKRSKFMAEEIVQQMTREHDLPMVIVNPSTPIGPRDIKPTPTGRLVVDTLRNRMPAYVNTGLNIVHADDIAEGHLLAYKHGKPGERYILGGENMTLLQILQKIDEIRGRRIRRLGLPVKLMVPAAWLMEKMSTVTKVEPRATVDSVSMAKKKMFYSSDKAVRELGYRYRPAAAALEDAMNWFQANGYCG”, for which the “soluble on expression in E. coli” value was “not soluble”.

“MAHHHHHHMRRVLLFRNRVDFVATLLQQGRLADMLMLQHFTSRTPQKPPAGNAAERNSGGTKVSVGETSRRALLTRCEAVKAKAMSTPCTDWLADAYGSGEWCALSESRDMVRVVASDNDPTRVKLRGTFPVLVQEGSSPASVRLAASKESGEALIVTVPLVQSGEKVRSSAIGGGIRAVTLKEADGSVVSDAATSVDAFAAEQNILSAAVCSGILGKLEEICALHATHTVRYDALLVRNPAVQKRLSQLACARFSLDALSSFVASAAVDEPMPLVESVALRMHAKHALAIGMGSARDIIHGTAMLKASPHRSKPERLIDYPYAQQLFASERYVLSSLGASSAAETMRHFTPLLMQPQTHMPAGVQGPLASLLLGGKGGNVNLAAPHANLRVSAAFLEKDIAAMLQRIQQQKKRADPLFVMAIAQYVAELFANTAVVYRTTASLTHEDDSAPRDWLLTQAFCADSSARRATILCEWDLSSAARKAIGKAADLNGCTTHPVELMNAEPARKPKVPSKSAAASVTQEAN”: the “soluble on expression in E. coli” value was “not soluble”.

“MKIRDLLKARRGPLFSFEFFPPKDPEGEEALFRTLEELKAFRPAFVSITYGAMGSTRERSVAWAQRIQSLGLNPLAHLTVAGQSRKEVAEVLHRFVESGVENLLALRGDPPRGERVFRPHPEGFRYAAELVALIRERYGDRVSVGGAAYPEGHPESESLEADLRHFKAKVEAGLDFAITQLFFNNAHYFGFLERARRAGIGIPILPGIMPVTSYRQLRRFTEVCGASIPGPLLAKLERHQDDPKAVLEIGVEHAVRQVAELLEAGVEGVHFYTLNKSPATRMVLERLGLRPASGQP”: the “soluble on expression in E. coli” value is given as “soluble”.

With “MDWKITIFTYNLAMKASDSEAVHNMLNGMIDDHTHLVAIGLQEVAHSETIGGAVLTWATTIASWMNTNGRMVLLAKTFQATNQVLIFGRKQLIGQIKRIDYRFQRNTMGGLTGHKGSIGVRLQLASPYSIVFVDSHFIHGPENYGKRVEQYHTNRNCSFPEDKSVRAAFWFGDFNFRVEEDVNTVIRKIKNGTHLELLDTREQLKRALVERDAFIGFHEQPVTFEPTYRVTVGTTEQDGKRVPSWTDRILYKGDGITGLSYTNNKKAVASDHLPVVAMFRVTAPAAPKPQWEVIFEHLPTWYTSIPLVGRFQVNELYYKENGSYRDWIGVFPSSINDCTTATNWIYAATCFEQVIEGSKFLACEFNNIPAGNYRLGYFSCHLHCLVGLSKVFQIVEQP”, the “soluble on expression in E. coli” value is “not soluble”.

“SDESDLPSAMPAVPAFGVEERNMVSGVLTLAERSIRSIMTPRTDVSWVNIDDDAATIRQQLTAAPHSFFPVCRGSLDEVVGIGRAKDLVADLITEGRVRRNRLRDPIIVHESIGILRLMDTLKRSRGQLVLVADEFGAIEGLVTPIDVFEAIAGEFPDEDELPDIVAESE”: the “soluble on expression in E. coli” value is listed as “soluble”.

As for “MSVERSLEAWEEVQRHGQDLADRLAQGFNGLIQINPPSFPSKLFDLEFSSQHFGIRDSRFSIHQPINGVSAILDIGNKIGQAGVDFGSGLNVMVQQFFRRLPVPFRHDENVFVSTERDTVTRSHRAYVDTKENSAFSKTDTASSGTVYEEKVTEFDLRTIGLHRRAKGTVELSSSYETRTSSMEHSLAARGDLWRVEASTSNSPVRDDSSSLFLLQLGPLLFLRDSTLLLPVHLSKQHLLWYGYDRKKGMHSLCPALWSKHRRWLMMSMLCLNPLDCSFVDLQFPNGQLTYVSGEGLTTSVFVPLCGGLLQAQGQYPGDMRFSFSCKSKQGTRITPMINWPDKSLALGVSQALAWRRSGVMLKPAIQLSVCSTFGGSNPGIKTEVIQSLNDNINMICGCAFTAHPSTFASVSFGRSKWNGNIGRTGIVVRADTPLPNVARPSFSIQINNAFEF”, the “soluble on expression in E. coli” value is listed as “soluble”.

As to “AELLLSDNEDKKQRIKEEKQLKLVKWNFQAPTDEHISQLQTLLGNQAKVSLMSQLFHKDFKQHLAALDSLVRLADTSPRSLLSNSDLLLKWCTLRFFETNPAALIKVLELCKVIVELIRDTETPMSQEEVSAFVPYLLLKTGEAKDNMRTSVRDIVNVLSDVVGPLKMTPMLLDALKSKNARQRSECLLVIEYYITNAGISPLKSLSVEKTVAPFVGDKDVNVRNAAINVLVACFKFEGDQMWKAAGRMADKDKSLVEERIKRTGV”, the “soluble on expression in E. coli” value was “soluble”.
